In patent US6890738 one finds inhibition of the Nb2 cell growth response to 400 pg/ml wild-type PRL by 200 pg/ml aspartate mutant (MTS assay) and reduction of the Nb2 cell growth response to 800 pg/ml wild-type PRL by 200 pg/ml glutamate mutant (MTS assay) (fraction of growth response) data, which are given here for two substances.

This assay deals with prolactin receptor on Nb2 T lymphoma cells (rat) (UniProt P05710). Briefly: cell-based or functional assay.
Sequence of UniProt P05710 (P05710 20-610): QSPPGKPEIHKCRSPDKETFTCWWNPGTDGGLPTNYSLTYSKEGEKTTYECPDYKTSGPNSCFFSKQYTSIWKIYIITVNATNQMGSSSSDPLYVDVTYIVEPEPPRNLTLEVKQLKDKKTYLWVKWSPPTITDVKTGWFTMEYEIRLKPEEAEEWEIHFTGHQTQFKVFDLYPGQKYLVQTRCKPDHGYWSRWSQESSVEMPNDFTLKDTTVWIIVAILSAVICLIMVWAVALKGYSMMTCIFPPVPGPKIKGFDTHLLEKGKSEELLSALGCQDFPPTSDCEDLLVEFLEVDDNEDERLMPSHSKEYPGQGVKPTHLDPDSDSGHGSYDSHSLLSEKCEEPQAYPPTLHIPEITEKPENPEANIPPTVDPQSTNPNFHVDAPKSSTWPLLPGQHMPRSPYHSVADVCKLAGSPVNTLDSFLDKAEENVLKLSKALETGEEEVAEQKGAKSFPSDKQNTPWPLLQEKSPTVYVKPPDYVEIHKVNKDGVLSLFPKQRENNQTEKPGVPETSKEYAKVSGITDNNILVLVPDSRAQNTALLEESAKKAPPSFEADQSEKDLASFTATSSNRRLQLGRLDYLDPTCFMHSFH

Take “human prolactin aspartate mutant (serine 179 substituted with aspartate) (from UniProt P01236 29-227) (ligand)”: the inhibition of the Nb2 cell growth response to 400 pg/ml wild-type PRL by 200 pg/ml aspartate mutant (MTS assay) was 75%.

“human prolactin glutamate mutant (serine 179 substituted with glutamate) (from UniProt P01236 29-227) (ligand)” yielded a reduction of the Nb2 cell growth response to 800 pg/ml wild-type PRL by 200 pg/ml glutamate mutant (MTS assay) (fraction of growth response) of 0.5.
